From paper PMC545800
No end group written: not given here.

T1: tetratricopeptide repeat (TPR) domain of S. cerevisiae PEX5 (Gal4pBD-TPR, plasmid pAH987) (S. cerevisiae)
T1 sequence (P35056 whole entry, looked up): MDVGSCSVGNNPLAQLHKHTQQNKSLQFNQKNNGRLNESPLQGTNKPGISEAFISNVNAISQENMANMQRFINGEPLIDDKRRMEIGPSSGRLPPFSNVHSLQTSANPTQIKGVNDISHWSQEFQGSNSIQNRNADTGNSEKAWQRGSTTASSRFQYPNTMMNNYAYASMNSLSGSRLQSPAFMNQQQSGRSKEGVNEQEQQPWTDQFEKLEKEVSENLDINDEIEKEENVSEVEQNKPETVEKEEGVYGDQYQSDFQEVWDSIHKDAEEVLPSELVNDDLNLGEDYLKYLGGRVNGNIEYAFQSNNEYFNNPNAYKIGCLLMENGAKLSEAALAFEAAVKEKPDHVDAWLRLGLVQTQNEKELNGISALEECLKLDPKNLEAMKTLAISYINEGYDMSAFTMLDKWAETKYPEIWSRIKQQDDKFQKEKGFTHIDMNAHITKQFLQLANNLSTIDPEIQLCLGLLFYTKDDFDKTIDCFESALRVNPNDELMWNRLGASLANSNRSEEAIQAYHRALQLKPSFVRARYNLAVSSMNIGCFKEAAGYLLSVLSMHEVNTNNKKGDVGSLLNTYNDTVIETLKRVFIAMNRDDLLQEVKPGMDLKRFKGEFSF


What follows are molecules tested against T1, tetratricopeptide repeat (TPR) domain of S. cerevisiae PEX5 (Gal4pBD-TPR, plasmid pAH987) (S. cerevisiae) (assay: two-hybrid; yeast strain PCY3 co-transformed with Gal4pAD-16mer (pGAD.GH) and Gal4pBD-TPR of PEX5 (pAH987 yeast or hP87 human); quantitative beta-galactosidase activity, cells grown in SC-leu-trp at 30°C; lower limit of around 10 Miller Units per mg protein for a productive interaction).

Row | beta-galactosidase activity (Units/mg protein) | Molecule
1 | 482 | carboxy-terminal 16-mer of yeast mitochondrial ribosomal protein L2, or MRP7 (Gal4pAD-16mer) (peptide)
2 | 195 | EKGIKYKFEVYEKSKL [carboxy-terminal 16 residues of the DHFR-SKL construct (Gal4pAD-16mer)]
3 | 270 | DINNTIDAARRVFAKL (not fully specified (N-terminus)) [carboxy-terminal 16-mer of Escherichia coli glutamate-1-semialdehyde 2,1-aminomutase (Gal4pAD-16mer)]
4 | 164 | FAVDQRKLEDLLAAKL [carboxy-terminal 16-mer of E. coli transaldolase A (Gal4pAD-16mer)]
5 | 45 | GMGRREGHPDVGPARL [carboxy-terminal 16-mer of Methanopyrus kandleri riboflavin synthase (Gal4pAD-16mer)]
6 | 206 | EEVIRKIAEGLNKAKF (not fully specified (N-terminus)) [carboxy-terminal 16-mer of Archaeoglobus fulgidus 2-nitropropane dioxygenase (Gal4pAD-16mer)]

Each molecule was assayed against tetratricopeptide repeat (TPR) domain of human PEX5 (Gal4pBD-TPR, plasmid hP87) (Homo sapiens) in the same assay as above.

Row | beta-galactosidase activity (Units/mg protein) | Molecule
7 | 310 | FDRDQNRVGLAEAARL (not fully specified (N-terminus)) [carboxy-terminal 16-mer of the precursor of lysosomal bovine cathepsin D (Gal4pAD-16mer)]
8 | 242 | LLMEKEDYHSLYQSHL [carboxy-terminal 16-mer of human tyrosinase (Gal4pAD-16mer)]
9 | 73 | RCKGTDVQAWIRGCRL [carboxy-terminal 16-mer of hen egg-white lysozyme (Gal4pAD-16mer)]

Continued, molecule first:

Row | Molecule | beta-galactosidase activity (Units/mg protein)
10 | HCKGKDLSKYLASCNL [carboxy-terminal 16-mer of dog lysozyme C from milk (Gal4pAD-16mer)] | 25
11 | DINNTIDAARRVFAKL (not fully specified (N-terminus)) [carboxy-terminal 16-mer of Escherichia coli glutamate-1-semialdehyde 2,1-aminomutase (Gal4pAD-16mer)] | 473
12 | PLKDKQLYANEGVSRL (not fully specified (N-terminus)) [carboxy-terminal 16-mer of Drosophila sevenless protein (Gal4pAD-16mer)] | 29
13 | FAVDQRKLEDLLAAKL [carboxy-terminal 16-mer of E. coli transaldolase A (Gal4pAD-16mer)] | 566
14 | GMGRREGHPDVGPARL [carboxy-terminal 16-mer of Methanopyrus kandleri riboflavin synthase (Gal4pAD-16mer)] | 358
15 | LLMEAEDYQATYQSNL [carboxy-terminal 16-mer of frog tyrosinase (Gal4pAD-16mer)] | 91
